Experimental data: publication PMC2114910 (The Journal of Cell Biology, 1987)

Assays:
[1] = target: T1, F-actin from chicken breast muscle (chicken (endogenous in breast muscle), UniProt P68139 1-377); assay: cell-based or functional assay
[2] = target: T1, F-actin from chicken breast muscle; assay: co-sedimentation

actin activation of the MgATPase activity of 110K-CM, F-actin 0.1 to 60 uM, 35C [1]: 2.5 to 3.5 fold | mass ratio of 110K-CM to actin at apparent saturation [2]: ~20 110K-CM:actin by mass
B1: 110-kD protein-calmodulin complex of the intestinal microvillus (complex)
chain 1: MEATTSLLDAAAVGDLVMLDPLSEESLLRTLQERFSRGEIYTYIGEVVISVNPYKPLPIYTPEKVEEYHNCNFFAVKPHIYAIADDAYRSLRDRDRDQCILITGESGAGKTEASKLVMSYVAAVSSKGEEVDKVKEQLLQSNPVLEAFGNAKTIRNDNSSRFGKYMDVEFDFKGDPLGGVISNYLLEKSRIVRHVKGERNFHIFYQLLAGGSAQLLQQLKLRPDCSHYGYLNHEKSVLPGMDDAANFRAMQDAMAIIGFAPAEVTALLEVTAVVLKLGNVKLSSCFQASGMEASSITEPRELQEISQLIGLDPSTLEQALCSRTVKVRDESVLTALSVSQGYYGRDALAKNIYSRLFDWLVNRINTSIQVKPGKQRKVMGVLDIYGFEIFQDNGFEQFIINYCNEKLQQIFILMTLKEEQEEYVREGIQWTPVEFFDNSIICDLIENSKVGILAMLDEECLRPGTVNEDTFITKLNQIFASHKRYESKETLNAKHVTDVSLPLRCFRIHHYAGKVTYNVTGFIEKNNDLLFRDLSQAMWAARHTLLRSLFPEGDPQRPSLKLPPTTGSQFKASVATLMKNLYSKNPNYIRCIKPNDTKTAMLFTPDLVLAQVRYLGLMENVRVRRAGYAFRQLYQPFLERYKMLSRKTWPRWTGGDREGAEVLLAELKFPPEELAYGHTKIFIRSPRTLFDLEKRRQQRVAELATLIQKMFRGWCCRKRYQLMRKSQILISAWFRGHMQRNRYKQMKRSVLLLQAYARGWKTRRMYRRYFRSDACTRLSNFIYRRMVQKYLMGLQKNLPPMAVLDRTWPPAPYKFLSDANQELKSIFYRWKCKKYREQLTPQQRAMLQAKLCASELFKDKKALYAQSLQQPFRGEYLGLTQNRKYQKLQAVAKDKLVMAEAVQKVNRANGKTVPRLLLLTTEHLVLADPKAAQPKMVLSLCDIQGASVSRFSDGLLALHLKETSTAGGKGDLLLVSPHLIELVTRLHQTLMDATAQALPLSIADQFSTRFPKGDVAVTVVESAKGGGDVPVCKKRGSHKMEILVH
chain 2: […]
